Test results reported in patent publication US20250025505A1 (BIONTECH, published 2025).

Experiments:
Test in all cases: recognition by CLDN6 CAR-T cells, non-clinical study; assay not described
CLDN9 = molecular target: T1, CLDN9 (UniProt O95484 1-217, limits assumed)
T1 construct: also called claudin 9
T1 sequence (looked up): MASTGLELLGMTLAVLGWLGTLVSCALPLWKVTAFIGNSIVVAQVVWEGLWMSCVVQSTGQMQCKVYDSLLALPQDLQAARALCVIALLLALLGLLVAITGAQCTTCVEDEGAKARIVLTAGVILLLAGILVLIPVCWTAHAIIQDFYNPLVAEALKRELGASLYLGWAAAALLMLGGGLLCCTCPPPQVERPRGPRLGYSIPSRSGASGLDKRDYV

CLDN4 = molecular target: T2, CLDN4 (UniProt O14493 1-209, limits assumed)
T2 construct: also called claudin 4
T2 sequence (looked up): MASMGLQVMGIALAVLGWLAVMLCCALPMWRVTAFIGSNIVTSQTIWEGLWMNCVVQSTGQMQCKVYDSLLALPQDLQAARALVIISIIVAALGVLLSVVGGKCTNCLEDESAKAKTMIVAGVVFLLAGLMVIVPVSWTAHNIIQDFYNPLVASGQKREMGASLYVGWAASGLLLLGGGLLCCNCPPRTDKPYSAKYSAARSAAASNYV

CLDN3 = molecular target: T3, CLDN3 (UniProt O15551 1-220, limits assumed)
T3 construct: also called claudin 3
T3 sequence (looked up): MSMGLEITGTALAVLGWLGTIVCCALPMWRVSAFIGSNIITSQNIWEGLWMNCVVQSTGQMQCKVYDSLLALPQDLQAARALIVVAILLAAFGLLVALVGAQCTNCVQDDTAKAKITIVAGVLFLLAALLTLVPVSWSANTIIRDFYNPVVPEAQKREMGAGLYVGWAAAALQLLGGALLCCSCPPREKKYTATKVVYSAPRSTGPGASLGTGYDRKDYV

Measured: binding result

B1: CLDN6-CAR-CD8h-BBz (other)
chain: EVQLQQSGPELVKPGASMKISCKASGYSFTGYTMNWVKQSHGKNLEWIGLINPYNGGTIYNQKFKGKATLTVDKSSSTAYMELLSLTSEDSAVYYCARDYGFVLDYWGQGTTLTVSSGGGGSGGGGSGGGGSDIVLTQSPSIMSVSPGEKVTITCSASSSVSYMHWFQQKPGTSPKLSIYSTSNLASGVPARFSGRGSGTSYSLTISRVAAEDAATYYCQQRSNYPPWTFGGGTKLEIKRSDPATTTPAPRPPTPAPTIASQPLSLRPEACRPAAGGAVHTRGLDFACDIYIWAPLAGTCGVLLLSLVITLYCKRGRKKLLYIFKQPFMRPVQTTQEEDGCSCRFPEEEEGGCELRVKFSRSADAPAYKQGQNQLYNELNLGRREEYDVLDKRRGRDPEMGGKPRRKNPQEGLYNELQKDKMAEAYSEIGMKGERRRGKGHDGLYQGLSTATKDTYDALHMQALPPR
notes: Chimeric antigen receptor, tested on the surface of retrovirally transduced human (or murine) T cells; also called CLDN6-CAR-BBz
no binding: all assays above
